Target: T1, GST-SMAD4^R361H, Q13485
T1 chain: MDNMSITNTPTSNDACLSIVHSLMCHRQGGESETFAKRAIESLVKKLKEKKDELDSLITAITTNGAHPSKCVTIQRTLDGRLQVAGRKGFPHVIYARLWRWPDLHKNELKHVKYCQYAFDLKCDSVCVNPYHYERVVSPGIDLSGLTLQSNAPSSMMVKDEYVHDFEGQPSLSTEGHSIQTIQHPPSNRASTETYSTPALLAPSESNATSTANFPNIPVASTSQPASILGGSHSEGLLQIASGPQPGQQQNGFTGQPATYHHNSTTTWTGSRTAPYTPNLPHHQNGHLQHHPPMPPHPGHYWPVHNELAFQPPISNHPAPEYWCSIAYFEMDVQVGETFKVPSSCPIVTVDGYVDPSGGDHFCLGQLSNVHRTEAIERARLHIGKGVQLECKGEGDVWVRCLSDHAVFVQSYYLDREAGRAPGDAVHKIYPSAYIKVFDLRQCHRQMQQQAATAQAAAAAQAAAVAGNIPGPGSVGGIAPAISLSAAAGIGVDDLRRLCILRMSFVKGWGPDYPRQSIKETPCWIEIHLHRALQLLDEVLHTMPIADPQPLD
Test: pull-down
Details: remark: other sources report otherwise

EC50 of Go-6983 in enhancing the complex: 8.9 µM
EC50 of Ro-31-8220 in enhancing the complex: 2.1 µM
B1: Venus-flag-SMAD3, P84022 1-425 (natural protein)
chain: MSSILPFTPPIVKRLLGWKKGEQNGQEEKWCEKAVKSLVKKLKKTGQLDELEKAITTQNVNTKCITIPRSLDGRLQVSHRKGLPHVIYCRLWRWPDLHSHHELRAMELCEFAFNMKKDEVCVNPYHYQRVETPVLPPVLVPRHTEIPAEFPPLDDYSHSIPENTNFPAGIEPQSNIPETPPPGYLSEDGETSDHQMNHSMDAGSPNLSPNPMSPAHNNLDLQPVTYCEPAFWCSISYYELNQRVGETFHASQPSMTVDGFTDPSNSERFCLGLLSNVNRNAAVELTRRHIGRGVRLYYIGGEVFAECLSDSAIFVQSPNCNQRYGWHPATVCKIPPGCNLKIFNNQEFAALLAQSVNQGFEAVYQLTRMCTIRMSFVKGWGAEYRRQTVTSTPCWIELHLNGPLQWLDKVLTQMGSPSIRCSSVS

From article PMC10053325
